According to patent publication US20250382388A1 (ARGENX, published 2025):
Where a chain is given by its changes, count along the chain named. Names may count otherwise.

B1: TA-Alb23-Fc-ABDEG (Fc fusion)
chain: EVQLLESGGGLVQPGGSLRLSCAASGFTFRSFGMSWVRQAPGKGPEWVSSISGSGSDTLYADSVKGRFTISRDNSKNTLYLQMNSLRPEDTAVYYCTIGGSLSRSSQGTLVTVSSDKTHTCPPCPAPELLGGPSVFLFPPKPKDTLYITREPEVTCVVVDVSHEDPEVKFNWYVDGVEVHNAKTKPREEQYNSTYRVVSVLTVLHQDWLNGKEYKCKVSNKALPAPIEKTISKAKGQPREPQVYTLPPSRDELTKNQVSLTCLVKGFYPSDIAVEWESNGQPENNYKTTPPVLDSDGSFFLYSKLTVDKSRWQQGNVFSCSVMHEALKFHYTQKSLSLSPG
notes: Alb23 VHH on the N-terminus of both Fc domains; also called two-armed N-terminal anti-HSA-Fc-ABDEG
B2: ABDEG-30GS-Alb23-SM (Fc fusion)
chain 1: DKTHTCPPCPAPELLGGPSVFLFPPKPKDTLYITREPEVTCVVVDVSHEDPEVKFNWYVDGVEVHNAKTKPREEQYNSTYRVVSVLTVLHQDWLNGKEYKCKVSNKALPAPIEKTISKAKGQPREPQVYTLPPSRDELTKNQVSLWCLVKGFYPSDIAVEWESNGQPENNYKTTPPVLDSDGSFFLYSKLTVDKSRWQQGNVFSCSVMHEALKFHYTQKSLSLSPGGGGGSGGGGSGGGGSGGGGSGGGGSGGGGSEVQLLESGGGLVQPGGSLRLSCAASGFTFRSAGMSWVRQAPGKGPEWVSSISGSGSDTLYADSVKGRFTISRDNSKNTLYLQMNSLRPEDTAVYYCTIGGSLSRSSQGTLVTVSS
chain 2: DKTHTCPPCPAPELLGGPSVFLFPPKPKDTLYITREPEVTCVVVDVSHEDPEVKFNWYVDGVEVHNAKTKPREEQYNSTYRVVSVLTVLHQDWLNGKEYKCKVSNKALPAPIEKTISKAKGQPREPQVYTLPPSRDELTKNQVSLSCAVKGFYPSDIAVEWESNGQPENNYKTTPPVLDSDGSFFLVSKLTVDKSRWQQGNVFSCSVMHEALKFHYTQKSLSLSPG
notes: also called OA-Fc-ABDEG-30GS-Alb23-F32A; OA-ABDEG-30GS-Alb23-SM
B3: ABDEG-30GS-Alb23-SM-A (Fc fusion)
chain 1: DKTHTCPPCPAPELLGGPSVFLFPPKPKDTLYITREPEVTCVVVDVSHEDPEVKFNWYVDGVEVHNAKTKPREEQYNSTYRVVSVLTVLHQDWLNGKEYKCKVSNKALPAPIEKTISKAKGQPREPQVYTLPPSRDELTKNQVSLWCLVKGFYPSDIAVEWESNGQPENNYKTTPPVLDSDGSFFLYSKLTVDKSRWQQGNVFSCSVMHEALKFHYTQKSLSLSPGGGGGSGGGGSGGGGSGGGGSGGGGSGGGGSEVQLLESGGGLVQPGGSLRLSCAASGFTFRSAGMSWVRQAPGKGPEWVSSISGSGSDTLYADSVKGRFTISRDNSKNTLYLQMNSLRPEDTAVYYCTIGGSLSRSSQGTLVTVSSA
chain 2: B2 chain 2
B4: efgartigimod (human IgG1 Fc fragment with ABDEG mutations) (other)
chain: B2 chain 2 with S146T, A148L, V187Y
notes: residues 1-226 (my count) are the Fc part; also called ARGX-113; efgartigimod alfa
B5: OA-Fc-ABDEG-Alb23 (Fc fusion)
chain 1: DKTHTCPPCPAPELLGGPSVFLFPPKPKDTLYITREPEVTCVVVDVSHEDPEVKFNWYVDGVEVHNAKTKPREEQYNSTYRVVSVLTVLHQDWLNGKEYKCKVSNKALPAPIEKTISKAKGQPREPQVYTLPPSRDELTKNQVSLWCLVKGFYPSDIAVEWESNGQPENNYKTTPPVLDSDGSFFLYSKLTVDKSRWQQGNVFSCSVMHEALKFHYTQKSLSLSPGGGGGSGGGGSGGGGSGGGGSEVQLLESGGGLVQPGGSLRLSCAASGFTFRSFGMSWVRQAPGKGPEWVSSISGSGSDTLYADSVKGRFTISRDNSKNTLYLQMNSLRPEDTAVYYCTIGGSLSRSSQGTLVTVSS
chain 2: B2 chain 2
notes: also called OA-Fc-ABDEG-20GS-Alb23; ABDEG-20GS-Alb23
B6: TA-Fc-ABDEG-2H11 (2H11 parental fused at the C-terminus of Fc-ABDEG) (Fc fusion)
chain: DKTHTCPPCPAPELLGGPSVFLFPPKPKDTLYITREPEVTCVVVDVSHEDPEVKFNWYVDGVEVHNAKTKPREEQYNSTYRVVSVLTVLHQDWLNGKEYKCKVSNKALPAPIEKTISKAKGQPREPQVYTLPPSRDELTKNQVSLTCLVKGFYPSDIAVEWESNGQPENNYKTTPPVLDSDGSFFLYSKLTVDKSRWQQGNVFSCSVMHEALKFHYTQKSLSLSPGGGGGSGGGGSGGGGSGGGGSELQVVESGGGLVQAGGSLRLSCAASGRTFRSNTMGWFRQAPGKEREFVAAITWSGGTTYYADSVKGRFAISGDNAKNTVYLQMNSLKPEDTAVYYCAAEGPKWEPWNGIYHPADFGSWGQGTQVTVSS
B7: TA-Fc-ABDEG-2H11-v15 (Fc fusion)
chain: B6 chain with D360A
B8: TA-Fc-ABDEG-2H11-v16 (Fc fusion)
chain: B6 chain with F361A
notes: Scaffold as for m24
B9: TA-Fc-ABDEG-2H11-v12 (Fc fusion)
chain: B6 chain with Y356A
notes: Scaffold as for m24
B10: TA-Fc-ABDEG-2H11-v3 (Fc fusion)
chain: B6 chain with P347A
B11: Alb23 F32A VHH fragment (VHH)
VHH: EVQLLESGGGLVQPGGSLRLSCAASGFTFRSAGMSWVRQAPGKGPEWVSSISGSGSDTLYADSVKGRFTISRDNSKNTLYLQMNSLRPEDTAVYYCTIGGSLSRSSQGTLVTVSS
notes: also called Alb23-SM
B12: TA-Fc-ABDEG-Alb23 (Fc fusion)
chain: B5 chain 1 with W146T
notes: also called TA-ABDEG-Alb23

What was measured:
[1] = molecular target: T1, FcRn-L322A/L323A expressed in HEK293 cells (UniProt P55899 24-365); test: cell FcRn occupancy, flow cytometry, free FcRn stained with anti-FcRn-Fab AF647, HEK293-FcRn-L322A/L323A cells, with HSA
T1 sequence (P55899 24-365 L343A/L344A, chain 1 of 2): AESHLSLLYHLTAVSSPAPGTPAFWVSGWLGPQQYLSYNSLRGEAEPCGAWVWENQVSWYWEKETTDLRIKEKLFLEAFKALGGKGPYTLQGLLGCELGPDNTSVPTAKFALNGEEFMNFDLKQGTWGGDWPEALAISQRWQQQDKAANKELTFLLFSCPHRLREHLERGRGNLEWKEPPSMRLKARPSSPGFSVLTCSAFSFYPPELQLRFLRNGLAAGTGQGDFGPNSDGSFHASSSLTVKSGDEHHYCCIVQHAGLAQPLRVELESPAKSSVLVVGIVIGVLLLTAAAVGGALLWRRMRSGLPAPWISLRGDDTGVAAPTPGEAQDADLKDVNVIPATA
T1 sequence (chain, as listed by the source L322A L323A, chain 2 of 2): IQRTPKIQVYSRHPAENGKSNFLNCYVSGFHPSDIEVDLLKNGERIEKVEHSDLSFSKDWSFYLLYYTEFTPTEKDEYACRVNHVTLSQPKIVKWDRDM

[2] = molecular target: T1, FcRn-L322A/L323A expressed in HEK293 …; test: cell FcRn occupancy, flow cytometry, free FcRn stained with anti-FcRn-Fab AF647, HEK293-FcRn-L322A/L323A cells, without HSA
[3] = molecular target: T2, human serum albumin (human, UniProt P02768 25-609); test: SPR, pH 5.5
T2 construct: Immobilised on SPR chips; also added in solution to the cell assays; also called HSA; humanSA

[4] = molecular target: T2, human serum albumin; test: SPR, pH 7.4 and 5.5
[5] = molecular target: T2, human serum albumin; test: SPR, pH 7.4 (ka and kd N/A)
[6] = molecular target: T2, human serum albumin; test: SPR, Langmuir 1:1 or steady state model, pH 5.5
[7] = molecular target: T2, human serum albumin; test: SPR, Langmuir 1:1 or steady state model, pH 7.4 (ka and kd N/A)
[8] = molecular target: T3, neonatal Fc receptor (FcRn), endogenous in U937 cells (UniProt P55899 24-365; P61769 21-119); test: cell FcRn occupancy, flow cytometry, free FcRn stained with labelled anti-FcRn Fab, U937 cells, 2,500 nM HSA (SD 0.1)
T3 construct: whole, on cells; Free FcRn was stained inside fixed and permeabilised cells
T3 sequence (P55899 24-365 limits assumed, chain 1 of 2): as the sequence (P55899 24-365 L343A/L344A, chain 1 of 2) above, with A320L, A321L counted along it
T3 sequence (P61769 21-119 limits assumed, chain 2 of 2): as the sequence (chain, as listed by the source L322A L323A, chain 2 of 2) above
Method: (§1) Next, FcRn occupancy was tested using a cell-based FcRn occupancy assay in the presence or absence of albumin. Briefly, test articles (Fc-ABDEG-VHH molecules) were pre-incubated with HSA for 30 minutes at 37° C., pH 7.4 in FACS buffer. Cells (HEK FcRn mut or U937) were plated in a 96-well microplate. Cells were incubated with test article for two hours, shaking at 37° C., pH 7.4 in FACS buffer. Plates were then transferred immediately on ice and cells were collected by centrifugation at 4° C. Cells stained for viability in FACS buffer at pH 6 and then fixed/permeabilized in permeabilization buffer at pH 6. […] Cells were analyzed by FACS, ensuring that they are kept on ice until immediately prior to analysis.

[9] = molecular target: T2, human serum albumin; test: SPR, pH 5.5 (ka and kd N/A)
[10] = molecular target: T3, neonatal Fc receptor (FcRn), endogenous …; test: cell FcRn occupancy, flow cytometry, free FcRn stained with labelled anti-FcRn Fab, U937 cells, 2,500 nM HSA (SD 0.5)
Method: as §1

[11] = molecular target: T3, neonatal Fc receptor (FcRn), endogenous …; test: cell FcRn occupancy, flow cytometry, free FcRn stained with anti-FcRn-Fab AF647, U937 cells, with HSA
Method: as §1

[12] = molecular target: T3, neonatal Fc receptor (FcRn), endogenous …; test: cell FcRn occupancy, flow cytometry, free FcRn stained with labelled anti-FcRn Fab, U937 cells, 2,500 nM HSA (SD 1.4)
Method: as §1

[13] = molecular target: T2, human serum albumin; test: SPR, pH 7.4
[14] = molecular target: T2, human serum albumin; test: SPR, pH 5.5; pH 5.5
[15] = molecular target: T2, human serum albumin; test: SPR, Langmuir 1:1 or steady state model, pH 7.4
[16] = molecular target: T2, human serum albumin; test: SPR Biacore 3000, HSA on chip, pH 5.5
[17] = molecular target: T2, human serum albumin; test: SPR Biacore 3000, HSA on chip, pH 7.4
[18] = molecular target: T2, human serum albumin; test: SPR Biacore 3000, HSA on chip, ratio of R0 at pH 5.5 to pH 7.4
[19] = molecular target: T2, human serum albumin; test: not stated there (refers to the earlier SPR)

Binder | % max occupancy [1] [%] | IC50 [1] [nM] | IC50 [2] [nM] | R0 pH5.5 [16] [RU] | koff [16] [s⁻¹] | R0 pH7.4 [17] [RU] | koff [17] [s⁻¹] | R0 5.5/7.4 [18] | other results
B1 | 43.4 | 78.3 | 19.9 |  |  |  |  |  | 
B2 |  |  |  |  |  |  |  |  | Kd [3]: 20300 nM; koff [3]: 0.351 s⁻¹; kon [3]: 17300 M⁻¹ s⁻¹; fold decrease in affinity against OA-Fc-ABDEG-Alb23 [4]: > 300 fold; Kd [5]: 49000 nM; Kd [6]: 20300 nM; koff [6]: 0.351 s⁻¹; kon [6]: 17300 M⁻¹ s⁻¹; Kd [7]: 49000 nM; IC50 [8]: 2.1 nM
B3 |  |  |  |  |  |  |  |  | Kd [9]: 19000 nM; Kd [5]: 31400 nM; IC50 [10]: 2.3 nM
B4 | 57.7 | 16.1 | 6.8 |  |  |  |  |  | % max occupancy [11]: 56.8%; IC50 [11]: 4.8 nM; IC50 [12]: 2.9 nM
B5 | 67.9 | 11.5 | 6.4 |  |  |  |  |  | Kd [3]: 66.5 nM; koff [3]: 0.00186 s⁻¹; Kd [13]: 147 nM; koff [13]: 0.00336 s⁻¹; kon [13]: 22900 M⁻¹ s⁻¹; kon [14]: 27900 M⁻¹ s⁻¹; Kd [6]: 66.5 nM; koff [6]: 0.00186 s⁻¹; kon [6]: 27900 M⁻¹ s⁻¹; Kd [15]: 147 nM; koff [15]: 0.00336 s⁻¹; kon [15]: 22900 M⁻¹ s⁻¹
B6 |  |  |  | 351 | 0.00016 | 115 | 0.00072 | 3 | 
B7 |  |  |  | 235 | 0.00174 | 0.635 | 0.0025 | 370 | 
B8 |  |  |  | 8.91 | 0.00301 | 0.571 | 0.00193 | 16 | 
B9 |  |  |  | 93.9 | 9.72e-05 | 6.32 | 0.0012 | 14.9 | 
B10 |  |  |  | 164 | 0.000135 | 8.24 | 0.0029 | 19.9 | 
B11 |  |  |  |  |  |  |  |  | fold lower affinity against parental Alb23 VHH [19]: ~300 fold
B12 | 63.8 | 33 | 20.2 |  |  |  |  |  | 
